These results are taken from US20090208519A1.

The experiment addresses native Neospora caninum cyclophilin (NcCyP) in whole-cell tachyzoite lysate (NcAg) (Neospora caninum) (UniProt P84343). As to the kind of experiment: cell-based or functional assay.
UniProt P84343, sequence (P84343 18-178 limits assumed): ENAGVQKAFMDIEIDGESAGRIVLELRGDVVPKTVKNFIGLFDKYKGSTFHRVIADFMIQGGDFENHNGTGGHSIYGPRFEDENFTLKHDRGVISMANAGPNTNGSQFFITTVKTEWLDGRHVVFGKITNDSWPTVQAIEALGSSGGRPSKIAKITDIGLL

On to cyclosporin A (CsA) (peptide), for which the NcAg-stimulated IFNγ production in mouse splenocytes fell in the range of 10 to 100 nM.
